T1: MBP-CsTBH (TINY BRANCHED HAIR, HD-ZIP) (Cucumis sativus, UniProt A0A0A0LED8 1-240)
T1 sequence: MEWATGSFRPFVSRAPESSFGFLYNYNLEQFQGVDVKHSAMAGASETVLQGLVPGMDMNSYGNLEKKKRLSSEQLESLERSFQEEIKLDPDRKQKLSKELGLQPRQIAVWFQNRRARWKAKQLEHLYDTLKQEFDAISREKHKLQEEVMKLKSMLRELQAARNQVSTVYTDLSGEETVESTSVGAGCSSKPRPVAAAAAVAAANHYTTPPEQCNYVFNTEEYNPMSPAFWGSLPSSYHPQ

B1: CsFLS promoter probe (dsDNA)
DNA 1: AATTTAAAATAATTATTGGGATTTCAAAC
DNA 2: GTTTGAAATCCCAATAATTATTTTAAATT
B2: Cs4CL promoter probe (dsDNA)
DNA 1: CTTCCAAATTAATTATTGTTTTATGCAAA
DNA 2: TTTGCATAAAACAATAATTAATTTGGAAG
B3: CsF3H promoter probe (dsDNA)
DNA 1: GATTTGAGAAAATTATTGGGCTGGATTGT
DNA 2: ACAATCCAGCCCAATAATTTTCTCAAATC

biological target: T1, MBP-CsTBH (TINY BRANCHED HAIR, HD-ZIP); experiment: EMSA; EMSA kit (Beyotime GS009) reaction buffer, room temperature, 6% native PAGE; salt and pH not stated; conditions: protein: recombinant; chain copies: 2; blunt

Binding result, binds:
B1, B2, B3

From publication PMC10400037, “Novel players in organogenesis and flavonoid biosynthesis in cucumber glandular trichomes”
